Laboratory results: US20190330358A1 (EUTILEX, published 2019)
Where a chain is given by its changes, count along the chain named.

T1: human AITR expressed on the cell surface (human, UniProt Q9Y5U5 26-241)
T1 sequence (looked up): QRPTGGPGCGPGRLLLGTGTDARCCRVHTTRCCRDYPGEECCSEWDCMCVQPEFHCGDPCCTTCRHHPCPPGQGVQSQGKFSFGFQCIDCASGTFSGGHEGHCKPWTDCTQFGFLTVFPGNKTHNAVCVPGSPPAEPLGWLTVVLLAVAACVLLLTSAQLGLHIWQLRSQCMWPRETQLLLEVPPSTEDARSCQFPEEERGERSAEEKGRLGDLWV

T2: Glutathione S-transferase (GST)-tagged AITR (human, UniProt Q9Y5U5 26-139)
T2 construct: also called GST-AITR antigen; GST-AITR analyte; not shown: Glutathione S-transferase (GST) tag
T2 sequence (looked up): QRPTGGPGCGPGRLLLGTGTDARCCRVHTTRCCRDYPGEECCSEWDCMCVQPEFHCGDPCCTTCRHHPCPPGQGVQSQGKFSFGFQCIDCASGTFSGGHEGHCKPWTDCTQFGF

T3: R12 AA 75-139
T3 construct: also called GST fusion protein construct R12 (AITR deletion mutant)
T3 GST fusion protein: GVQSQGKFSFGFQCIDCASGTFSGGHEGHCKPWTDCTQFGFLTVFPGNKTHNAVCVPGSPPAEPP

B1: IRTCA-A15 (Clone H1F1) Fab (Fab, V domains shown)
VH: QVQLVQSGTQVKMPGASVKVSCKASGYTFDDYGIGWVRQAPGQGLEWMGWISPYTHRTNSSPKLQDRVTMTTDTSTSTAYMELRSLRSDDTAVYYCARDGTYYDFWSGYFDNNAFDIWGQGTLVTVSS
VL: QSVVTQPPSVSAAPGQKVTISCSGSTSNIGNNYVSWYQQLPGTAPKLLIYDNYKRPSGIPDRFSGSKSGTSATLGITGLRTGDEADYFCGTWDSSLNAWVFGGGTKLTVL
B2: IRTCA-A14 (Clone H2F8) Fab (Fab, V domains shown)
VH: B1 VH with N112T, N113A
VL: B1 VL
B3: IRTCA-A12 (Clone H2A10) Fab (Fab, V domains shown)
VH: B1 VH with N113A, A114T, I117F
VL: B1 VL
B4: Parental IRTCA-A Fab (Fab, V domains shown)
VH: B1 VH with N113G
VL: B1 VL
B5: IRTCA-A10 (Clone H1A10) Fab (Fab, V domains shown)
VH: B1 VH with N113A, I117S
VL: B1 VL
B6: IRTCA-A1 (Clone L1E9) Fab (Fab, V domains shown)
VH: B1 VH with N113G
VL: B1 VL with T91S, D93E, S95G, L96S, W99Y, V100K
B7: H1F1.M69 (H1F1.H2.J1/H1F1.L3.J1) (antibody, V domains shown)
VH: QVQLVQSGAQVKMPGESLKVSCKASGYTFTDYGMGWVRQAPGQGLEWMGWISPYTGRTNSSDKFQGRVTMTRDTSTSTAYMELRSLRSEDTAVYYCARDGTYYDFWSGYFDNNAFDIWGQGTLVTVSS
VL: B1 VL with A12G, K17R, I59V, T73S, G75A, R80Q, G82E, F88Y
notes: Made in Expi293 cells from HC and LC DNA
B8: H1F1 anti-AITR monoclonal antibody (antibody, V domains shown)
VH: B1 VH
VL: B1 VL
notes: Bivalent antibody captured by anti-human IgG(Fc); constant regions not specified for this antibody; also called parent antibody H1F1
B9: H1F1.M74 (H1F1.H8/H1F1.L3.J2) (antibody, V domains shown)
VH: B7 VH with T30D, G44C
VL: QSVVTQPPSVSGAPGQRVTISCSGSTSNIGNNYVSWYQQLPGTAPKLLIYDNYKRPSGVPDRFSGSKSGTSASLAITGLQSEDEADYYCGSWESGSNAYKFGGGTKLTVL
notes: as for B7
B10: IRTCA-A (A27) anti-AITR monoclonal antibody (antibody, V domains shown)
VH: B1 VH with N113G
VL: B1 VL
notes: Monoclonal antibody form, detected with anti-human IgG-HRP; constant regions not specified for this antibody

Target: T1, human AITR expressed on the cell surface
Test: cell-based or functional assay

| secretion of IFN-γ by CD4+ T cells at 0.5 µg, against IRTCA-A [%] | Binder |
| --- | --- |
| ≥ 200 | B1 |
| ≥ 200 | B2 |
| ≥ 200 | B3 |

Target: T2, Glutathione S-transferase (GST)-tagged …
Test: KD ratio against parental IRTCA-A, repeated from the SPR of Table 3

| KD Ratio [fold] | Binder |
| --- | --- |
| 1 | B4 |
| 44.4 | B1 |
| 30.1 | B2 |
| 8.4 | B5 |
| 27.6 | B3 |
| 8.2 | B6 |

Target: T2, Glutathione S-transferase (GST)-tagged …
Test: SPR, Fab against the AITR antigen

| Ka [M⁻¹] | Kd [nM] | koff [s⁻¹] | kon [M⁻¹ s⁻¹] | Binder |
| --- | --- | --- | --- | --- |
| 8.74e+06 | 114 | 0.00134 | 11700 | B4 |
| 3.9e+08 | 2.57 | 0.000334 | 130000 | B1 |
| 2.64e+08 | 3.79 | 0.00027 | 71100 | B2 |
| 7.34e+07 | 13.6 | 0.000565 | 41500 | B5 |
| 2.42e+08 | 4.13 | 0.000288 | 69700 | B3 |
| 7.18e+07 | 13.9 | 0.000412 | 29600 | B6 |

Target: T2, Glutathione S-transferase (GST)-tagged …
Test: SPR (Biacore T200), antibody captured by anti-human IgG(Fc), GST-AITR analyte 3.12-100 nM
Experimental: This example assesses the ability of mutant anti-AITR antibodies to bind to an AITR antigen recognized by the parent antibody, H1F1. Surface plasmon resonance was used in order to determine the ability of mutant anti-AITR antibodies to bind to AITR.
A Biacore T200 with a CMS sensor chip was run using HBS-EP running buffer at pH 7.4 and 3M magnesium chloride regeneration buffer. Anti-human IgG(Fc) antibodies were immobilized to the CMS chip via amine coupling and 6 minute injections at a flow rate of 5 μL/minute were performed with an immobilization buffer of 10 mM sodium acetate at pH 5.0. The capture antibodies tested were parent antibody H1F1 and mutant antibodies M69 and M74. Glutathione S-transferase (GST)-tagged AITR analyte was injected at concentrations of 3.12, 6.25, 12.5, 25, 50 and 100 nM, with an association time of 150 seconds and a dissociation time of 240 seconds.

| Kd [nM] | Binder |
| --- | --- |
| 0.657 | B7 |
| 0.789 | B8 |
| 0.966 | B9 |

Target: T3, R12 AA 75-139
Test: Western blot and ELISA on GST-AITR deletion constructs
Experimental: Binding of the anti-AITR antibodies IRTCA-A (A27), H1F1, H1F1M69 and H1F1M74 to the GST-fusion proteins R1-R12 was assessed using Western blot analysis, in which the GST-fusion proteins were resolved by 12% SDS-PAGE and subjected to immunoblotting using the antibodies IRTCA-A, H1F1, H1F1M69 and H1F1M74. Anti-Human IgG-HRP (1:5000; Jackson Laboratories, Bar Harbor, Me.) was used as the secondary antibody. Detection of chemiluminescence was obtained by using SuperSignal West Pico Chemiluminescent Substrate (Pierce, Rockford, Ill.).

| binding result | Binder |
| --- | --- |
| no binding | B10 |
| no binding | B7 |
| no binding | B8 |

Target: T2, Glutathione S-transferase (GST)-tagged …
Test: SPR, Fab against the AITR antigen; ratio against parental IRTCA-A

| KD Ratio [fold] | Binder |
| --- | --- |
| 1 | B4 |
| 44.4 | B1 |
| 30.1 | B2 |
| 8.38 | B5 |
| 27.6 | B3 |
| 8.2 | B6 |

Target: T2, Glutathione S-transferase (GST)-tagged …
Test: KD ratio against parental IRTCA-A, repeated from the SPR of Table 3
Remark: another data set of the same source

| KD Ratio [fold] | Binder |
| --- | --- |
| 1 | B4 |
| 44.4 | B1 |
| 30.1 | B2 |
| 8.4 | B5 |
| 27.6 | B3 |
| 8.2 | B6 |

Target: T2, Glutathione S-transferase (GST)-tagged …
Test: as above
Remark: another data set of the same source

| KD Ratio [fold] | Binder |
| --- | --- |
| 1 | B4 |
| 44.4 | B1 |
| 30.1 | B2 |
| 8.4 | B5 |
| 27.6 | B3 |
| 8.2 | B6 |
